From patent publication US20220143204A1 (LINXIS B V, published 2022)

Assays:
[1] = target: T1, rat PDGFRB on SCC VII cells (rat, UniProt Q05030 32-1097); assay: binding assay on SCC VII cells transfected with rat PDGFRB (Example 4)
T1 construct: whole, on cells; also called rPDGFRB; SCC-rPDGFRB

[2] = target: T2, rat PDGFRB extracellular domain (rat, UniProt Q05030 32-531); assay: binding assay on immobilised rat PDGFRB ectodomain, apparent affinity (Example 4)
T2 construct: extracellular domain; also called rPDGFRB-ECD; rat PDGFRB ectodomain
T2 sequence (looked up): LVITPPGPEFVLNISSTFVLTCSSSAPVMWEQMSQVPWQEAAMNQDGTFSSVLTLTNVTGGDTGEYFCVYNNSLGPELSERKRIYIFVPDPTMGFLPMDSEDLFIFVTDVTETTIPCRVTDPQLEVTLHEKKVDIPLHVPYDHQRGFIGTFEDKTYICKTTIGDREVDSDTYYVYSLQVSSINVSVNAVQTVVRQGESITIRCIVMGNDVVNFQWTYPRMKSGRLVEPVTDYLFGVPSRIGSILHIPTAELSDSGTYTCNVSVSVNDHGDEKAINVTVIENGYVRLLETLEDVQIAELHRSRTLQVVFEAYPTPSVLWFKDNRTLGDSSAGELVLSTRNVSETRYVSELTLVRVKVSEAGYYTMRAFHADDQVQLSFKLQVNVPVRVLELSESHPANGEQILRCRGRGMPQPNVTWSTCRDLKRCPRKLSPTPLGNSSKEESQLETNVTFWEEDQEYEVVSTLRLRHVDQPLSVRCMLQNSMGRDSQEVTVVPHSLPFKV

[3] = target: T1, rat PDGFRB on SCC VII cells; assay: binding assay on SCC VII cells transfected with rat PDGFRB-GFP, VHH detected with anti-VHH rabbit serum and IRDye800CW secondary antibody; binding in % (n=2) [right panel]
Experimental: (§1) FIG. 9. Binding of selected VHHs on SCC VII cells transfected with either the human or rat PDGFRB receptor (SCC-hP or SCC-rP) fused to GFP. The VHH is detected using anti-VHH rabbit serum and donkey-anti-rabbit secondary antibody labelled with IRDye800CW.
(§2) The results are summarized in FIGS. 5 and 6 for the hPDGFRB and rPDGFRB VHHs, respectively. […] Moreover, the binding affinities of the hPDGFRB VHHs human were also determined on the human hepatic stellate cell (HSC) line LX-2 (FIG. 5).

[4] = target: T3, human PDGFRB on SCC VII cells (human, UniProt P09619 33-1106); assay: binding assay of the IRDye800CW conjugate on SCC VII cells transfected with human PDGFRB, fluorescence at 800 nm
T3 construct: whole, on cells; also called hPDGFRB; SCC-hPDGFRB
Experimental: (§3) Based on their high affinity and binding to non-overlapping hPDGRB epitopes, VHHs SP02P, SP12P SP14P and […] were selected for the design of biparatopic VHH constructs and produced in a similar way as described in example 6.1. (FIG. 15A). The binding affinities of the biparatopic constructs were determined with an ELISA assay with the periplasm (FIG. 15A). Moreover, based on their high affinity and binding to non-overlapping rPDGRB epitopes, VHHs SP26P and SP28P were selected for the design of a biparatopic VHH construct and produced in a similar way as described in example 6.1. The formed biparatopic SP28P-SP26P was conjugated to IRDye800CW (SP28P-SP26P-IRDye800CW conjugation method as described in example 9.2) and subjected to a binding assay SCC VII cells transfected with hPDGFRB, rPDGFRB or hIGF2R were performed (FIG. 15B). […] In order to create a biparatopic VHH construct which is cross-reactive for hPDGFRB and rPDGFRB, VHH SP02P binding to hPDGFRB and VHH SP026P binding to rPDGFRB were selected and the biparatopic construct SP02P-SP26P was produced in a similar way as described in example 6.1. (FIG. 15C). Construct SP02P-SP26P was conjugated to IRDye800CW (SP02P-SP26P-IRDye800CW, conjugation method as described in example 9.2) and subjected to bindings assays on SCC VII cells transfected with hPDGFRB, rPDGFRB or hIGF2R were performed (FIG. 15C).

rat IGF2R on cells = target: T4, rat IGF2R on cells (rat, UniProt A0A8I6GLL6 43-2479); assay: binding assay on SCC VII cells over-expressing rat IGF2R
T4 construct: whole, on cells; also called rIGF2R
Experimental: (§4) To determine whether 13F11-13E8 is cross-reactive against rIGF2R, the construct was conjugated to IRDye800CW (13F11-13E8-IRDye800CW, conjugation method as described in example 9.2) and the binding affinity was determined using a binding assay on SCC VII cells over-expressing either human, or rat IGF2R (FIG. 12).

human IGF2R on cells = target: T5, human IGF2R on cells (human, UniProt P11717 41-2491); assay: binding assay on SCC VII cells over-expressing human IGF2R
T5 construct: whole, on cells; On SCC VII cells over-expressing human IGF2R, NIH 3T3 2.2 cells transiently transfected with hIGF2R, or A549 cells, as told under assay or readout; also called hIGF2R
Experimental: as §4

[5] = target: T3, human PDGFRB on SCC VII cells; assay: binding assay on SCC VII cells transfected with hPDGFRB
Experimental: as §3

[6] = target: T6, human PDGFRB extracellular domain (human, UniProt P09619 33-532); assay: binding and competition assays of Examples 4 and 5
T6 construct: extracellular domain; also called hPDGFRB-ECD; human PDGFRB ectodomain

PDGFRB ECD = assay: competition ELISA on PDGFRB ECD: unconjugated competitor titrated against SP26P-IRDye800, fluorescence at 800 nm
Experimental: Competition ELISAs were carried out to determine whether the hPDGFRB specific binders (FIG. 5) and rPDGFRB specific binders (FIG. 6) recognize distinct epitopes on hPDGFRB or rPDGFRB, respectively. The hPDGFRB binding VHHs SP02P, SP05P, SP12P and SP14P and the rPDGFRB binder SP26P were conjugated to IRDye800CW (VHH-IRDye800CW, conjugation method as described in example 9.2) and each conjugated VHH was mixed with unconjugated competitor in trifold serial dilutions and incubated on immobilized […]. Two VHHs share (part of) the same epitope when the fluorescence signal of the VHH-IRDye800CW decreases upon increasing concentration of unconjugated VHH. Furthermore, using a similar method as described in section 5.1, binding epitope competition between the hPDGFRB binding VHH SP02P and rPDGFRB binding VHH SP26P was performed. No competition was observed between the two VHHs qualifying them as building blocks for biparatopic binding molecules (FIG. 11).

[7] = target: T7, human PDGFRB on LX-2 cells (human, UniProt P09619); assay: binding assay on the human hepatic stellate cell line LX-2 (Example 4)
T7 construct: full-length receptor on the cell surface; The list has human PDGFRB only on SCC VII cells

[8] = target: T3, human PDGFRB on SCC VII cells; assay: binding assay on SCC VII cells transfected with human PDGFRB (Example 4)
[9] = target: T6, human PDGFRB extracellular domain; assay: binding assay on immobilised human PDGFRB ectodomain, apparent affinity (Example 4)
[10] = target: T3, human PDGFRB on SCC VII cells; assay: binding assay on SCC VII cells transfected with human PDGFRB-GFP, VHH detected with anti-VHH rabbit serum and IRDye800CW secondary antibody; binding in % (n=6) [left panel]
Experimental: as §1, §2

T3 sequence (P09619 33-1106): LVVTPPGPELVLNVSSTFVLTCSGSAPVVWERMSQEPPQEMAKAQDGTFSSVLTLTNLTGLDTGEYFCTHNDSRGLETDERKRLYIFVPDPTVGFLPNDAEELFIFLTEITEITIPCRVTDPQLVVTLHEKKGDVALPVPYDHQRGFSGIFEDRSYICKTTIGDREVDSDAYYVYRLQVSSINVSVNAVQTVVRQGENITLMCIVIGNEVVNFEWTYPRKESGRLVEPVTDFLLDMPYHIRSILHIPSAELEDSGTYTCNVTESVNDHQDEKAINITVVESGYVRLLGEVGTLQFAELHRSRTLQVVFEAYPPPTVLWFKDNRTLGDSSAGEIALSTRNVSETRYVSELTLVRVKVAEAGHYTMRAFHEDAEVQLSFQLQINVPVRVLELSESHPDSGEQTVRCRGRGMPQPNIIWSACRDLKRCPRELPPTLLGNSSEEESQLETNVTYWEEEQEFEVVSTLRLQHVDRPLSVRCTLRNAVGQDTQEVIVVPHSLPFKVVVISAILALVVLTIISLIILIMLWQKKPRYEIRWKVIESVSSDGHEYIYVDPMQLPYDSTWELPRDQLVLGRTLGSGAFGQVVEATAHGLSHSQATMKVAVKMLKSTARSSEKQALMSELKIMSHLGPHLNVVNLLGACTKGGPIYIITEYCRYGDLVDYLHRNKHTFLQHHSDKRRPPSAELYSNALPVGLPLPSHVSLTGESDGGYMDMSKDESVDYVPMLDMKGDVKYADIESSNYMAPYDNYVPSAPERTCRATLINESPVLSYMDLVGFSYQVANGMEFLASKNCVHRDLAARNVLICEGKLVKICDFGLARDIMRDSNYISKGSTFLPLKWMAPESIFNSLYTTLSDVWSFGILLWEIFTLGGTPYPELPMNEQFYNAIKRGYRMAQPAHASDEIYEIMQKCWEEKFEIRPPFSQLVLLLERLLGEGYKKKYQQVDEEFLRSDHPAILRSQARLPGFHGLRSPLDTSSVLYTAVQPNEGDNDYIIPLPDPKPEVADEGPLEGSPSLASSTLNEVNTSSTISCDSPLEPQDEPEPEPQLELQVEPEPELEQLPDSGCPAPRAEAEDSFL
T6 sequence (P09619 33-532): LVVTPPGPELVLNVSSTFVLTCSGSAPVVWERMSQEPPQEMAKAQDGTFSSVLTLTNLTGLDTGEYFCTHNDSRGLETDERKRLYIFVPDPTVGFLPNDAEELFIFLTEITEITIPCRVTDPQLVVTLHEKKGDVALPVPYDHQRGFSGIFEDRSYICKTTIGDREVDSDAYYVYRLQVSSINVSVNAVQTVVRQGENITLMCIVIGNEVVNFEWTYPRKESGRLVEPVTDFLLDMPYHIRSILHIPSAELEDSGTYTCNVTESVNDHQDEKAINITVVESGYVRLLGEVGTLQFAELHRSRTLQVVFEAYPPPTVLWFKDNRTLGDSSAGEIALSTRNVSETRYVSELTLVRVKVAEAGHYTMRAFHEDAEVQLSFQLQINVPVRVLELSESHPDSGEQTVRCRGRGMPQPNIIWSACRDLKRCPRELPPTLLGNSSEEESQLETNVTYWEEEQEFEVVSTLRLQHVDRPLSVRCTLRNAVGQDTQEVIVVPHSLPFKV
T7 sequence (P09619 33-1106 limits assumed): as the sequence (P09619 33-1106) above
PDGFRB ECD, sequence (P09619 33-532): as the sequence (P09619 33-532) above
T5 sequence (P11717 41-2491): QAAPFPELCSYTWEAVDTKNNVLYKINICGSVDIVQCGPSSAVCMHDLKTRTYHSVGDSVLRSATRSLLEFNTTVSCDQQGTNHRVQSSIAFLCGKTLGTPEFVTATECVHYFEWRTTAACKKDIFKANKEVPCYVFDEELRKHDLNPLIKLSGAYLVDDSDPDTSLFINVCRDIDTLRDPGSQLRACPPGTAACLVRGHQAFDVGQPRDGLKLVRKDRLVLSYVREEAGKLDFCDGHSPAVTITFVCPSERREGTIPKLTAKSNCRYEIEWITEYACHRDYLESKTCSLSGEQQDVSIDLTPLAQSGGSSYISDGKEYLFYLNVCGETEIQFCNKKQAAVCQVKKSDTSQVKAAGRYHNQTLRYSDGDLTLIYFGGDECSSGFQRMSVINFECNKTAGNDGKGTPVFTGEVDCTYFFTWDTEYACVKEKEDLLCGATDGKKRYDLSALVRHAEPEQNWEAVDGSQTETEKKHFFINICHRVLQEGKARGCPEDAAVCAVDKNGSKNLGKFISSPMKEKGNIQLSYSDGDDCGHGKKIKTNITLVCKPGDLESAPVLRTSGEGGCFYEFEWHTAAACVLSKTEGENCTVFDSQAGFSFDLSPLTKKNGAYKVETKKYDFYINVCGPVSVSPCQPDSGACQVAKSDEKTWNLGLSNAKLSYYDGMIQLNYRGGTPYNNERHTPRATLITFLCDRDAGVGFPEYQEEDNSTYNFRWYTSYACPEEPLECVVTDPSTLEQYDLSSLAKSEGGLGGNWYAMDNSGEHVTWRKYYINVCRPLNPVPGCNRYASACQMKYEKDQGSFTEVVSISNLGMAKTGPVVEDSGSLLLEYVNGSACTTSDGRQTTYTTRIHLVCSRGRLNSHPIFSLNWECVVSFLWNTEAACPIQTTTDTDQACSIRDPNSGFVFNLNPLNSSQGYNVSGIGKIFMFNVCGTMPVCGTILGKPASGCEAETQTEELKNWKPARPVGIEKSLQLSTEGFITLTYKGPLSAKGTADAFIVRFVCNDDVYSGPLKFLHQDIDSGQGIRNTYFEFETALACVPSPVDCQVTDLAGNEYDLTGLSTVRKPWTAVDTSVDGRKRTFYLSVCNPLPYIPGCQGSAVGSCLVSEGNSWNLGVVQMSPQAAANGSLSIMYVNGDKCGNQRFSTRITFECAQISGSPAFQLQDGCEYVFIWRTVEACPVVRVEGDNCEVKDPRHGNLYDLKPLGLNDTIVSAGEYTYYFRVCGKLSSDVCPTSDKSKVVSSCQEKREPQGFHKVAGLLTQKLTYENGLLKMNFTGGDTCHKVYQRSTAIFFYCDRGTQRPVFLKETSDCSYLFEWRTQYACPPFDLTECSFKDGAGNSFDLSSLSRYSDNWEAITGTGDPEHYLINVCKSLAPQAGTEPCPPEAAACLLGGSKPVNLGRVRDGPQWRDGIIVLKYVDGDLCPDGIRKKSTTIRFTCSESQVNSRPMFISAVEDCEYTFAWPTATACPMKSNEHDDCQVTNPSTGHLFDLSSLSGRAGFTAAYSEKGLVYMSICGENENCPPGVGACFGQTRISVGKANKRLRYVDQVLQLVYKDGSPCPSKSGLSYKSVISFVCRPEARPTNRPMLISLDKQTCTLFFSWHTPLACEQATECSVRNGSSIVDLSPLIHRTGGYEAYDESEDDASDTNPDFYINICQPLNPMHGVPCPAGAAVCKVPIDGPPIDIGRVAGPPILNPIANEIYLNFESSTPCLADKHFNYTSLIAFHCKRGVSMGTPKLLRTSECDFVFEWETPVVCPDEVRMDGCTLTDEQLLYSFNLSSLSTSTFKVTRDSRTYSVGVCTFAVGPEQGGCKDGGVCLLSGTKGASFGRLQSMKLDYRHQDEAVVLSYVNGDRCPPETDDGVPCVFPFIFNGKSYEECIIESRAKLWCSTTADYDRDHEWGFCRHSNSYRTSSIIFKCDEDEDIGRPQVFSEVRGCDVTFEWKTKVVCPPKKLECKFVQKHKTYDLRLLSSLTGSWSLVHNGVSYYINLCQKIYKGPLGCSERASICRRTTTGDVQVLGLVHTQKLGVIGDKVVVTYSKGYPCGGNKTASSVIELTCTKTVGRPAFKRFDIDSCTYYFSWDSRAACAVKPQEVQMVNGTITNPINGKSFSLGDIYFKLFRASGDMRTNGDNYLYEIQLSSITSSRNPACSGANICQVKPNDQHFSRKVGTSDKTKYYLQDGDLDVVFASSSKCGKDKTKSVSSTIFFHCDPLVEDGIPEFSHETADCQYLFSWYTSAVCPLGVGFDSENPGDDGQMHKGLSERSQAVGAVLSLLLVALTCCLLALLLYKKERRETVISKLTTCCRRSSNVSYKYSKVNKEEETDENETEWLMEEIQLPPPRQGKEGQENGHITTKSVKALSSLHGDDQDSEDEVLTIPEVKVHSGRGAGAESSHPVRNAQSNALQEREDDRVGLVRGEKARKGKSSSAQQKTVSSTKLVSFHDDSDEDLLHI

B1: SP28P (VHH)
VHH: EVQLVESGGGLVQAGGSLRLSCAASGSIVSFNGINWYRQAPGKQREWVGGITQGGNTMYADSVRGRFTISRDNTKNTMYLQMNSLKPEDTAVYYCRRPPVASWGQGTQVTVSS
notes: Llama VHH; on phage in the phage ELISA
Kd [1]: 0.5 nM | Kd [2]: 6 nM | EC50 (read off the curve) [3]: ~0.6 nM

B2: SP28P-SP26P-IRDye800CW (VHH, not shown: small tags and cut ends)
chain: EVQLVESGGGLVQAGGSLRLSCAASGSIVSFNGINWYRQAPGKQREWVGGITQGGNTMYADSVRGRFTISRDNTKNTMYLQMNSLKPEDTAVYYCRRPPVASWGQGTQVTVSSGGGGSGGGGSGGGGSEVQLVESGGGLVQAGGSLRLSCAASGRSFSSSVMGWFRQTPGKEREFVAATRWTAASTHYADSVKGRFTISRDHAENAVFLQMNSLKPEDTAVYYCAAGNYLDTAQYRYNYWGQGTQVTVSS
modifications: IRDye800CW by maleimide chemistry on the C-terminal free cysteine
notes: Biparatopic tandem VHH; also called SP28-SP26P; SP28-26P
Kd [4]: 32.4 nM

B3: 13F11-13E8-IRDye800CW (VHH, not shown: small tags and cut ends)
chain: EVQLVESGGRLVQPGDSLRLSCAASGRTFSDNAMGWFRQAPGKERRFVAGISWAGGSTYYSDSVKGRFTISRDNAKNTVYLQMNSLKPEDTAVYYCAAGLRAWVQRMPKDYNYWGQGTQVTVSSGGGGSGGGGSGGGGSEVQLVESGGGLVQAGGSLRLSCAASRSISPMGWYRQAPGKQRELVAIMPSSGPPIYADSVQGRFTISRDNAKNTVYLQMNSLKPEDTAVYYCNVGGGYWGQGTQVTVSS
modifications: IRDye800CW by maleimide chemistry on the C-terminal free cysteine
notes: Biparatopic tandem VHH; also called IRD800CW conjugated 13F11-13E8; F11E8
Kd (rat IGF2R on cells): < 10 nM | Kd (human IGF2R on cells): < 10 nM

B4: SP02P-SP26P-IRDye800CW (VHH, not shown: small tags and cut ends)
chain: EVQLVESGGGLVQAGGSLRLSCAASESISSIEQMGWFRQAPGKQRALVAINTYGGRTVYTNSVEGRFTMSRDSAKNMVYLQMTSLEPEDTAVYYCYAQTTAWRGGVWGQGTQVTVSSGGGGSGGGGSGGGGSEVQLVESGGGLVQAGGSLRLSCAASGRSFSSSVMGWFRQTPGKEREFVAATRWTAASTHYADSVKGRFTISRDHAENAVFLQMNSLKPEDTAVYYCAAGNYLDTAQYRYNYWGQGTQVTVSS
modifications: IRDye800CW by maleimide chemistry on the C-terminal free cysteine
notes: Biparatopic tandem VHH
Kd [5]: < 5 nM | Kd [4]: 2.2 nM

B5: SP26P (VHH)
VHH: EVQLVESGGGLVQAGGSLRLSCAASGRSFSSSVMGWFRQTPGKEREFVAATRWTAASTHYADSVKGRFTISRDHAENAVFLQMNSLKPEDTAVYYCAAGNYLDTAQYRYNYWGQGTQVTVSS
notes: Llama VHH; on phage in the phage ELISA; also called SP026P
binding result [6]: binds | IC50 (read off the curve) (PDGFRB ECD): ~40 nM

B6: SP02P (VHH)
VHH: EVQLVESGGGLVQAGGSLRLSCAASESISSIEQMGWFRQAPGKQRALVAINTYGGRTVYTNSVEGRFTMSRDSAKNMVYLQMTSLEPEDTAVYYCYAQTTAWRGGVWGQGTQVTVSS
notes: as for B1
Kd [7]: 6.7 nM | Kd [8]: 4.1 nM | Kd [9]: 6.2 nM | EC50 (read off the curve) [10]: ~4 nM
